± gives the standard deviation of the averaged measurements.
tested on: ATP; assay: switch fluorescence ratio, 500 uM ATP over buffer (Cy3 cluster intensity, sum of 5 cycles each) (fold (ratio)); higher = stronger signal-on switching upon ATP binding; sequences stand for … in TCGTCGGCAGCGTCAGATGTGTATAAGAGACAGTTTTTTTTTTTTTTTTTTTTTTTTT…TC; conditions: aptamer strand: ATP DNA aptamer (quencher-CACCTGGGGGAGTATTGCGGAGGAAGG + anchor), 100 nM annealed; ATP concentration: 500 uM
Method in brief: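 Clusters with intensities outside 100-1000 RFU were excluded. The remaining Cy3-labelled switching-strand clusters on a modified Illumina MiSeq flow-cell had been annealed to 100 nM quencher-labelled ATP aptamer and imaged in selection buffer, then after 15 min with 500 uM ATP at 22 °C, for five cycles separated by NaOH stripping and re-annealing. The fluorescence ratio, averaged per switch-domain sequence, is each cluster's summed target-cycle Cy3 intensity over its summed buffer-cycle Cy3 intensity.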
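Also: ATP exposure 15 min at 22 °C before imaging.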

| Sequence | switch fluorescence ratio |
| --- | --- |
| AAGGGAGAAC | 0.986 ± 0.0019 |
| AAGGGAGCAC | 1.02 ± 0.023 |
| AAGGGATCGG | 0.994 ± 0.024 |
| AAGGGCATTG | 0.998 ± 0.015 |
| AAGGGCCCTA | 0.9939 ± 0.0018 |
| AAGGGCCGCG | 1 ± 0.017 |
| AAGGGCGCTG | 1.01 ± 0.048 |
| AAGGGCGGGC | 1.07 ± 0.0085 |
| AAGGGCTTAT | 0.981 ± 0.019 |
| AAGGGCTTGC | 1.01 ± 0.041 |
| AAGGGGACCC | 1.04 ± 0.043 |
| AAGGGGATT | 1.01 ± 0.027 |
| AAGGGGCTTG | 0.986 ± 0.036 |
| AAGGGGGACA | 0.992 ± 0.032 |
| AAGGGGGATT | 1.01 ± 0.044 |
| AAGGGGGCCA | 0.982 ± 0.074 |
| AAGGGGGGCT | 0.996 ± 0.03 |
| AAGGGGGGGA | 1.01 ± 0.046 |
| AAGGGGGTCC | 1.03 ± 0.036 |
| AAGGGGGTGG | 1.02 ± 0.059 |
| AAGGGGTATT | 1.01 ± 0.027 |
| AAGGGGTGCA | 0.968 ± 0.058 |
| AAGGGGTGTT | 1.02 ± 0.02 |
| AAGGGGTTAT | 1.02 ± 0.05 |
| AAGGGGTTGC | 1.03 ± 0.022 |

| Sequence | switch fluorescence ratio |
| --- | --- |
| AAGGGGTTGG | 1.01 ± 0.019 |
| AAGGGTAAAT | 0.996 ± 0.033 |
| AAGGGTAACA | 0.991 ± 0.019 |
| AAGGGTCTGG | 0.986 ± 0.024 |
| AAGGGTGCGT | 1.01 ± 0.044 |
| AAGGGTGGAG | 0.996 ± 0.026 |
| AAGGGTGGTA | 0.981 ± 0.016 |
| AAGGGTTCAT | 1.031 ± 0.0099 |
| AAGGGTTGCG | 0.985 ± 0.024 |
| AAGGTAACGG | 0.972 ± 0.038 |
| AAGGTAATCC | 1.01 ± 0.039 |
| AAGGTCGTAT | 0.9922 ± 0.009 |
| AAGGTCTTTG | 1.01 ± 0.043 |
| AAGGTGCCGG | 1.0373 ± 0.00076 |
| AAGGTGCCTG | 1.02 ± 0.064 |
| AAGGTGTCGG | 0.9895 ± 0.0037 |
| AAGGTGTGCG | 1.02 ± 0.024 |
| AAGGTGTTGG | 1.04 ± 0.021 |
| AAGGTGTTTT | 1.08 ± 0.016 |
| AAGGTTAATT | 1 ± 0.022 |
| AAGGTTACTC | 1.01 ± 0.029 |
| AAGGTTAGGT | 1.03 ± 0.041 |
| AAGGTTCTTT | 0.988 ± 0.022 |
| AAGGTTGATA | 0.988 ± 0.032 |
| AAGGTTGATG | 0.982 ± 0.02 |

| Sequence | switch fluorescence ratio |
| --- | --- |
| AAGGTTGCAA | 1.01 ± 0.011 |
| AAGGTTGCGC | 0.986 ± 0.026 |
| AAGGTTGGTC | 1 ± 0.027 |
| AAGGTTGTAA | 0.985 ± 0.021 |
| AAGGTTTAGT | 1 ± 0.024 |
| AAGGTTTCAA | 0.985 ± 0.018 |
| AAGGTTTGCG | 1.01 ± 0.025 |
| AAGGTTTGTT | 0.996 ± 0.049 |
| AAGTAAAAAT | 1.05 ± 0.036 |
| AAGTAAAGCT | 1.11 ± 0.06 |
| AAGTAATGGG | 0.961 ± 0.041 |
| AAGTACAGGC | 1.27 ± 0.12 |
| AAGTACCCGG | 1.14 ± 0.026 |
| AAGTACTAGC | 1.212 ± 0.0086 |
| AAGTAGGTAT | 1.02 ± 0.011 |
| AAGTAGTCTT | 0.995 ± 0.014 |
| AAGTATGGGA | 1.02 ± 0.028 |
| AAGTATTGGT | 1.02 ± 0.041 |
| AAGTCAATTC | 1.36 ± 0.12 |
| AAGTCACGGT | 1.09 ± 0.02 |
| AAGTCAGTGC | 1.11 ± 0.013 |
| AAGTCATGGA | 1.02 ± 0.027 |
| AAGTCATTTG | 1.017 ± 0.0088 |
| AAGTCGCATA | 1.04 ± 0.017 |
| AAGTCGCGGA | 0.999 ± 0.033 |

| Sequence | switch fluorescence ratio |
| --- | --- |
| AAGTCGGATG | 1.04 ± 0.079 |
| AAGTCGGGTG | 1.08 ± 0.024 |
| AAGTCTATAA | 1.02 ± 0.046 |
| AAGTCTGGGC | 1.01 ± 0.036 |
| AAGTCTGGGG | 1.01 ± 0.027 |
| AAGTGAAATT | 1.02 ± 0.018 |
| AAGTGAATAA | 0.998 ± 0.017 |
| AAGTGAGCAG | 1.012 ± 0.0072 |
| AAGTGATGCT | 1.03 ± 0.087 |
| AAGTGCAGGG | 0.9896 ± 0.0057 |
| AAGTGCGACC | 1.03 ± 0.057 |
| AAGTGGAGGG | 0.985 ± 0.021 |
| AAGTGGGGTT | 1.02 ± 0.029 |
| AAGTGGGTTA | 1.02 ± 0.032 |
| AAGTGGTTA | 0.981 ± 0.026 |
| AAGTGTCCCG | 0.994 ± 0.032 |
| AAGTGTCGTG | 0.959 ± 0.024 |
| AAGTGTTAG | 0.966 ± 0.011 |
| AAGTGTTGGC | 1.014 ± 0.01 |
| AAGTGTTTT | 1.016 ± 0.005 |
| AAGTTAAAA | 1.04 ± 0.092 |
| AAGTTAAAAG | 0.975 ± 0.012 |
| AAGTTAAGCC | 1.01 ± 0.047 |
| AAGTTAAGGG | 0.995 ± 0.055 |
| AAGTTACATT | 1.05 ± 0.012 |

| Sequence | switch fluorescence ratio |
| --- | --- |
| AAGTTATCAT | 0.964 ± 0.019 |
| AAGTTATGAC | 1.03 ± 0.029 |
| AAGTTATTAC | 1 ± 0.032 |
| AAGTTCCGGA | 1.034 ± 0.0072 |
| AAGTTCGATG | 0.976 ± 0.025 |
| AAGTTCGCCT | 1.09 ± 0.13 |
| AAGTTCGCTG | 1.01 ± 0.065 |
| AAGTTGACCG | 1.04 ± 0.046 |
| AAGTTGGTGT | 1.02 ± 0.043 |
| AAGTTGTATT | 0.9974 ± 0.0019 |
| AAGTTGTCTG | 0.978 ± 0.056 |
| AAGTTGTGA | 0.973 ± 0.035 |
| AAGTTGTTGT | 1.007 ± 0.0025 |
| AAGTTTGGAT | 0.9919 ± 0.005 |
| AAGTTTGGGC | 0.98 ± 0.036 |
| AAGTTTGTCT | 1.004 ± 0.0053 |
| AAGTTTGTTT | 0.99 ± 0.028 |
| AAGTTTTTTT | 1 ± 0.025 |
| AATAAAAGGG | 1 ± 0.03 |
| AATAAAATGG | 0.998 ± 0.028 |
| AATAAATGAT | 1.01 ± 0.022 |
| AATAAATTAA | 0.977 ± 0.031 |
| AATAAGACGG | 1.011 ± 0.0061 |
| AATAAGCACA | 1.2 ± 0.028 |
| AATAAGGGA | 1.03 ± 0.1 |

| Sequence | switch fluorescence ratio |
| --- | --- |
| AATAAGGGGG | 1.01 ± 0.064 |
| AATAAGTTAA | 1 ± 0.026 |
| AATAATAAGA | 1 ± 0.017 |
| AATAATAGCT | 1.01 ± 0.041 |
| AATAATCGAG | 1.027 ± 0.0093 |
| AATAATCGGC | 0.994 ± 0.06 |
| AATAATGCAA | 1.07 ± 0.022 |
| AATAATGCGT | 0.994 ± 0.034 |
| AATAATGCTT | 0.978 ± 0.014 |
| AATAATTCTG | 0.984 ± 0.053 |
| AATAATTTCG | 1.007 ± 0.0082 |
| AATACAGGCT | 0.999 ± 0.024 |
| AATACAGTGA | 0.9986 ± 0.00012 |
| AATACGGTAT | 1.05 ± 0.05 |
| AATACTACTA | 1.05 ± 0.053 |
| AATACTGATG | 1.007 ± 0.0032 |
| AATAGACGAA | 1.01 ± 0.043 |
| AATAGAGGGG | 0.9926 ± 0.0071 |
| AATAGCTACT | 1.076 ± 0.01 |
| AATAGGAAGT | 1.011 ± 0.007 |
| AATAGGGCCT | 1.02 ± 0.023 |
| AATAGGGGCT | 1.02 ± 0.054 |
| AATAGGGGTG | 1.01 ± 0.043 |
| AATAGTGGCA | 1.02 ± 0.044 |
| AATAGTGGGC | 1.01 ± 0.043 |

| Sequence | switch fluorescence ratio |
| --- | --- |
| AATAGTGGGT | 1 ± 0.013 |
| AATAGTTTAT | 0.986 ± 0.022 |
| AATATAATGT | 1.03 ± 0.021 |
| AATATCTCAC | 1.022 ± 0.0087 |
| AATATGAGAT | 0.9799 ± 0.0073 |
| AATATGAGTA | 0.993 ± 0.038 |
| AATATGGGTT | 0.9802 ± 0.0091 |
| AATATGTCGG | 1 ± 0.021 |
| AATATTATTA | 1.019 ± 0.0041 |
| AATATTTATT | 1.02 ± 0.0091 |
| AATATTTGGC | 1 ± 0.059 |
| AATATTTTTC | 1.01 ± 0.015 |
| AATCAAACAT | 1.03 ± 0.018 |
| AATCAATCTA | 1.01 ± 0.071 |
| AATCAATTAC | 1.123 ± 0.011 |
| AATCAGCATT | 1.08 ± 0.076 |
| AATCAGGGTA | 1.01 ± 0.04 |
| AATCAGGGTG | 1.16 ± 0.01 |
| AATCAGTGTA | 1 ± 0.051 |
| AATCAGTTTG | 1.022 ± 0.0094 |
| AATCCAAAAG | 1.026 ± 0.0043 |
| AATCCCTTTT | 1 ± 0.031 |
| AATCCGCTCT | 1.2 ± 0.11 |
| AATCCTGCGT | 1.16 ± 0.21 |
| AATCGAATAT | 1 ± 0.015 |

| Sequence | switch fluorescence ratio |
| --- | --- |
| AATCGATTTG | 0.989 ± 0.032 |
| AATCGCGGGC | 1.09 ± 0.024 |
| AATCGGATTG | 1 ± 0.025 |
| AATCGGGAGT | 1.013 ± 0.0094 |
| AATCGGGCGC | 1.01 ± 0.048 |
| AATCGGGTGC | 1.05 ± 0.054 |
| AATCGGTAAT | 1.027 ± 0.0081 |
| AATCGGTGGG | 0.997 ± 0.03 |
| AATCGTATAG | 0.9817 ± 0.0042 |
| AATCGTTAGG | 0.969 ± 0.022 |
| AATCTCCGAG | 1.09 ± 0.031 |
| AATCTGGGTG | 1.11 ± 0.034 |
| AATCTTGATG | 0.981 ± 0.03 |
| AATCTTGTGT | 0.985 ± 0.027 |
| AATGAAAATC | 1.08 ± 0.15 |
| AATGAAAGAT | 0.998 ± 0.039 |
| AATGACAGGG | 0.988 ± 0.02 |
| AATGACGGTA | 1.0565 ± 0.00075 |
| AATGACGTGT | 1 ± 0.052 |
| AATGAGATCG | 1.01 ± 0.016 |
| AATGAGGGAA | 0.9986 ± 0.0011 |
| AATGAGTGGA | 1.008 ± 0.0063 |
| AATGAGTTTT | 0.998 ± 0.027 |
| AATGCAGGTA | 1.03 ± 0.027 |
| AATGCATCTG | 0.973 ± 0.013 |

— the supplement of paper PMC10126150
